According to publication doi:10.1101/2024.12.30.630826:
Numbering of substitutions follows the chain as printed.

B1: RGen-aptamer-9 (structured_RNA)
RNA: UCCAGCACUCCACGCAUAACGAAGGGGGUUUGUUUGUUGGGGGGGGGGGAGGGGGAGUUAUGCGUGCUACCGUGAA
B2: SELEX-derived wild-type aptamer (structured_RNA)
RNA: B1 RNA with A22G, A23C, G26U, U29G, U31G, U33G, G40U, G44A

Target: IGFBP3 (insulin-like growth factor-binding protein 3) (UniProt P17936 28-291)
Test: SPR

Chain of IGFBP3 (insulin-like growth factor-binding protein 3) (P17936 28-291): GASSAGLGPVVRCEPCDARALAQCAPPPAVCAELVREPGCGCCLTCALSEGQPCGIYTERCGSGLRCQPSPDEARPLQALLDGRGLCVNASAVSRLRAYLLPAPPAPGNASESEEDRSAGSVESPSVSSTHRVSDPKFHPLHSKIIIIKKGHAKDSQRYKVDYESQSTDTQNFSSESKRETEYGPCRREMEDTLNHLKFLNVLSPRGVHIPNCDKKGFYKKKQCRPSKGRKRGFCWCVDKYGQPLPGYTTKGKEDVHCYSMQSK

| Binder | Kd [nM] |
| --- | --- |
| B1 | 6.06 |
| B2 | 11.6 |
